The nanobody polyreactivity screen of Harvey et al. (2022)

Assay: yeast display, Sf9 membrane polyspecificity reagent, FACS + sequencing; frameworks hold sequencing errors
Method in brief: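 Genes from sorted yeast were amplified by colony PCR, read by MiSeq 2 × 250 sequencing and filtered on CDR length. These cells carried a synthetic nanobody library in Saccharomyces cerevisiae BJ5465 and were sorted by FACS into low and high (top ~1%) gates on anti-HA and streptavidin fluorescence. Polyreactivity is labelled according to the gate of origin.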

Row | Sequence | polyreactivity (PSR sort gate)
1 | QVQLVESGGGLVQAGGSLRLSCAASGSTFSNYAMGWYRQAPGKERELVASISNGGSTNYADSVKGRFTISRDNAKNNVYLQMNSLKPEDTAVYYCNAESKAKYDYWGQGTQVTVSS | low polyreactivity
2 | QVQLVESGGGLVQAGGSLRLSCAASGINFDGNVMGWYRPAPRKEREFFASISISGGSTSYADSVKGRFTISRDNAKNTVYLQMNSLKPEDTAVYYCNTDVCYGRVWRWRFHGDYWGQGTQVTVSS | low polyreactivity
3 | QVQLVESGGGLVQAGGSLRLTCAACGRTFYWYSMGWYRKAPGKERELVATITRTGTRTYYADSVKGRFTISRDNAKNTVYLQMNSLKPEDTAVYYCAAGVIRYGGKEEYYYWGLGTQVTVSS | high polyreactivity
4 | QVQLEESGGGLVQAGGSLRLSCAASGNTFPGYAMGWYRQAPGKERELVARISRSGGSTYYADSVKGRFTISRDNAKKTVYLQMNSLKPEDTAVYYCAAGAYRSGGYSFDYWGQGTQVTVSS | low polyreactivity
5 | QVQLVESGGGLVQAGGSLRLICDASGSTFAVYTMGLYIQAPGTEREFVAAISSTGTCTYYADSVKGRFTISRDHAKNTVYLQKNSLKPEDTAVYYCAARWLGYRISYDYWGQGTQVTVSS | high polyreactivity
6 | QVQLVESGGGLVQAGGSLRLSCAASGRTFYYYSMGWYIQAPGKEREFVAAISYRGGSTYYADSVKGRFTITRDNAKNTVYFQMNSLNPEDTAVYYCAAGLVYLFISHNDYWGQGTQVTVSS | low polyreactivity
7 | QVQLVESGGGLVQAGGSLRLSCAASGRIFYNNAMGWYRQAPGKERELVAGISRSSGRTYYADSVKGRFTISRDIAKNTVYLQMNSLKPEDTAVYYCNTVSWPLSSKYYYWGQGTQVTVSS | high polyreactivity
8 | QVQLVESGGGLVQAGGSLRLSCAASGFTIYYYAMGWYRQAPGKERELVASISWRGGSTYYADSVKGRFTISRDNAKNTDYIQINSLKAEDTAVYYCAAQKRGSPGNRRDYWGQGTQVTVSS | high polyreactivity
9 | QVQLVESVGGLVQPGGSLRLSCAASGRTFGRYAKGWYRQAPGKERELVAGISRSGDSTHYADSLKGRFTISRDNAKYCVYLQMKSLKPEDTEVYYCNKETPTIGARKYEYWGQGTQVNVSS | low polyreactivity
10 | QVQLVESGGGLVQAGGSLRLSCSAYGRIFRGYAMGGYRQAPGKERELVASISGGDSTYADSVQGRFTISRDNAKNTVYLQMNSLKPEDTAVYYCADDNEWPRYDYWGQGTQVTVSS | low polyreactivity
11 | QVQLVESGGGLVQAGGILRLSCAASGIILYINAMGWYRQAPGKERELVAAITSDGSTNYADSVKGRITISRDNAKYTVYLQMNSLKPEDTAVYYCAVDLPWGTGVSQYPESDYWGQGTQVTVSS | low polyreactivity
12 | QVQLVESGGGLVQAGGSLRLSCAASGISFYSYTMGWYIQAPGKERELVAAIRGSDGSTYYADSVKGRFTLSRDNAKNTVYLQMNSLKPEVTAVYYCNRKFYWRRDYWGQGTQVTVSS | high polyreactivity
13 | QVQLVESGGGLVQAGGSLRLSCAASGSIFGVNDMGWYRQAPGKERELVAGISSSGGSTYDADSVMGRFTISRDNAKNTVYLQMNSLKPEDTAVYYCAARKLYRPRGRRVGYWGQGTQVTVSS | low polyreactivity
14 | QVQLVESGGGLVQAGGSLRLSCAASGGTFTFYAMGWYRQAPGKERELVATINWSGGSTYYADSVKGRFTISRDNAKNTVYLQMNSLKPEDTAVYYCNAAWPYKSVEYWGQGTQVTVSS | low polyreactivity
15 | QVQLVESGGGLVQEGGSLRLSCAASGRLFGTYTMGWYRQAPGKERELVAAISWSGGNTYYADSVKGRFTISRDNAKNTVYLQMNSLKPEDTAVYYCNALYYRPPKWYGYWGQGTQVTVSS | high polyreactivity
16 | QVQLVESGGGLVQAGGSLRLSCAASGITFITYAMGWYRQAPGKERELVAAISIRGGSTYYADSVKGRFTISRDNAKNTVYLQMNSLKPEDTAVYYCAKDNRSYTYDYWGQGTQVTVSS | low polyreactivity
17 | QVQLVESGGGLVQAGGSLRLSCAASGFTFYFYAMGWYRQAPGKERELVAAISRGGSTTYADSVKGRFTISRDNAKNTVYLQMNSLKPEDTAVYYCAKDRRRWYYTRDYWGQGTQVTVSS | low polyreactivity
18 | QVQLVESGGGLVQAGGSLSLSCAASGRTFDTYAMGWYRQAPGKERELVASITQSGGTTYYADSVKGRFTISRDNAKNTVYLQMNSLKPEDTAVYYCAARSYGSTSPIRVQLYYWGQGTQVTVSS | high polyreactivity
19 | QVQLVESGGGLVQAGGSLRLSCAASGSTFSYYAMGWYRQAPGKERELVAAITYSVGSTYYADSVKGRFTISRDNAKNTVYLQMNSLKPEDTAVYYCNKRYYYSRANYPYDYWGQGTQVTVSS | low polyreactivity
20 | QVLLQESGGGLVQAGGSLRLSCEAIGNIFSAGGMGWYRQAPVNERELVAGIGTGTSTNYAESVKGRFTISRDNAKNTVYLQMNSLNPEDTAVYYCAAAYYSGLSHWYWGQGTQVTVSS | low polyreactivity
21 | QVQLVESGGGLVHAGGSLRLSCAASGSIFGVNMGWYRQAPGKERELVASITSGGSTNYADSVKGRFTISRDNAKNTVYLQMNSLKPEDTAVYYCAARAERVREYNYWGQGTQVTVSS | low polyreactivity
22 | QVQLLESGGGLVQAGGSLRLTCAASGSTFDYYAMGWYRQAPGKERELVATISYNDDTTYYADSVKGRFTISRDNAKNTVYLQMNSLKPEDTAVYYCNAEVYGGRYYVDMYYWGQGTQVTVSS | low polyreactivity

Row | Sequence | polyreactivity (PSR sort gate)
23 | QVQLVESGGGLVQAGGSLRLSCAASGSIFTFYAMGWYRQAPGKERELVAAISSGGDTYYADSVKGRFTISRDNAKNTVYLQMNSLKAEDTAVYYCAADWRGSYLYGYYYWGQGTQVTVSS | low polyreactivity
24 | EVQLVESGGGLVQAGGSLRLSCAASGFTFSYNAMGWYRQAPGKERELVAAIDWGGGSTYADSVKGRFTISRDNAKNTVYLQMNSLKPEDTAVYYCAAYIPSSGRNPEIGVEYDYWGQGTQVTVSS | low polyreactivity
25 | QVQLVESGGGLVQAGGSLRLSCAASGRIFVSYAMGWYRQAPGKERELVAAISNSGSRTYYADSVKGRFTISRDNAKNTVYLQMNSLKPEDTAVYYCAAGQGAGVDYWGQGTQVTVSS | high polyreactivity
26 | QVQLVESGGGLVQAGGSLRLSCAASGNIFSDNAMGWYRQAPGKERELVAAITASTSDTYYADSVKGRFTISRDNAKNSVYLQMNSLKPEDTAVYYCAADSRGFQLFDYWGQGTQVTVSS | low polyreactivity
27 | QVQLVESGGGLVQAGGSLRLSCAASGSTFVYNAMGWYRQAPGKERELVAAISWSDGSTYYADSVKGRFTISRDNAKNTVYLELNSLKPEDTAVYYCADEGYYSWDVHDYNYWGQGTQVTVSS | high polyreactivity
28 | QVQLVESGGGLVQAGGSLRLSCAASGNIYRYYVMGWYRQAPGKEREFVAAITSSGGSTYYADSVKGRFTISRDNAKNTVYLQMNSLKPEDTAVFYCAKDYGDPGWAEYDYWGQGTQVTVSS | low polyreactivity
29 | QVQLVESGGGLVQAGGSLRLSCAASGSIFFDNAMGWYRQAPGKERELVATINSGGNTHYADSVKGRFTISRDNAKNTVYLQMNSLKPEDTAVYSCAADFRSDLVDGYNYWGQGTQVTVSS | low polyreactivity
30 | QVQLVESGGGLVQAGGSLRLSCAASGLIFRTYTMGWNRQAPGKERELVAVISTSGGTTYYADSVKGRFTISRDNAKNTVYLQMNSLKPEDTAVYYCAKRYYWKYAEYDYWGQGSQVTVSS | high polyreactivity
31 | QVQLVESGGGLVQAGGSHRLICAASGFIVSYHAMGWYRPAPGKESELVAAISSRGGSTYYADSVKGRFTISRDNAKNTVYLQMNSLKPEDTAVYYCATAGLTYRALRYYWGQGTQVTVSS | high polyreactivity
32 | QVQLVESGGGLVQAGGSLRLSCAASGSIFARYAMGWYRQAPGKERELVATITRGGSTNYADSVKGRFTISRDNAKNTVYLQMNSLKPDDTAVYYCARTSYGRLDYWGQGPQVTVSS | low polyreactivity
33 | QVQLVESGGGLVQAGGSLRLSCAASGRNFSSYAMGWYIQAPGKERELVAAITSGGRTKYADSVKGRFTISRDNAKNTVYLQMNSLKPEDTAVYYCAARNHWVRYLRYDYWGQGTQVTVSS | high polyreactivity
34 | QVQLVESGGGLVQAGGSLRLSCAASGSIFKPYAMGWSRQAPGKERELVAAISRSGSTYYADSVKGRFTISRDNAKNTVYLQMNSLKPEDTAVYYCAKDVRPNYYAAFNYWGQGTQVTVSS | low polyreactivity
35 | QVQLVESGGGLVQAGGSLRLSCAASGFIYSNNAMGWYRQAPGKERELVAAISASGSSTYYADSVKGRFTISRDNAKNTVYLQMNSLKPEDTAVYYCAAKSRTYQSYYYWGQGTQVTVSS | high polyreactivity
36 | QVQLVESGGGLVQAGCSLRLSCAASGRTFGGYALGWYRQAPGKERELVAAISRGGNTYYADSVKGRFTISRDNAKNTVYLQMNSLKPEDTAVYYCNVARGNPVPPSEYWGQGTQVTVSS | low polyreactivity
37 | QVQLVESGRGLVEAGGSLRLSCAASGSTFWAYVMGWSRQAPGKERELVAAITSSGGSTYYADSVKGRFTISRDYAKNTVYLQMNILKPEDTAVYYCAADYFYPYYGAMDYWGQGTQVTVSS | low polyreactivity
38 | QVQLVESGGGLVQAGGSLRLSCAASGLIFRYYAMGWYRQAPGKERELVAAIDGSDGITYYADSVKGRFTISRDNAKNTVYLQMNSLKPEDTEVYYCDAAFYYWGQGTQVTVSS | low polyreactivity
39 | QVQLVESGGGLVQAGVSLRLSCAASAFILEGYAMGWYTQAPGKERELVAAISDSGGSTYYADSVKGRFTISRDNAKNTVYLQMNSLKPEDTAVYYCATAYYWWTAYSYSYDHWGQGTQVTVSS | high polyreactivity
40 | QVQLVESGGGLVQAGGSLRLSCAASGRTFRYYAMGWYRKAPGKERELVATISKSGGSTYYADSVKGRFTISRDNAKNTVYLQMNSLKPEDTAVYYCAAVGPYRWYDYWGQGTQVTVSS | high polyreactivity
41 | QVQLVESRGGLVQAGGSLRLSCAASGRIFRYYAMGWYRQAPGTEREMVAAIRYRGASTYYADSVKGRFTISRDNAKNTVYLQMNSLKPEDTAVYYCAAYDYHPYRIVGASRSDYWGQGTQVTVSS | high polyreactivity
42 | QVQLVESGGGLVQAGGSLRLSGAASGSIFRDNGMGWYRPAPGKERELVAAINSGDSTYYADSVKGRFTISRDNAKNTVYLQLNSLKPEDTAVYYCNADDRRALSQRQYDWYDYWGQGTQVTVSS | low polyreactivity
43 | QVQLVESGGGLVQAGGSLRISCAASGRTFSRYAMGGYRQAPGTERELVAAISRRGSSTYYADSVKGRFTISRDNAKNTVYLQINSLKPEDTAVYYCNTVTFPYVPALYDYWGQGTQVTVSS | high polyreactivity
